Measurements as given in patent US7794719 (dated 2010).
Substitutions are numbered along the chain they refer to.

B1: MS-R 7.11.H1 x 7.2.L1 IgG1 (antibody, V domains shown)
VH: QLVESGGGLVQPGGSLRLSCAASGFTFSSYAMSWVRQAPGKGLEWVSGINAAGFRTYYADSVKGRFTISRDNSKNTLYLQMNSLRAEDTAVYYCARGKGNTHKPYGYVRYFDVWGQGTLVTVSS
VL: DIVLTQSPATLSLSPGERATLSCRASQYVDRTYLAWYQQKPGQAPRLLIYGASSRATGVPARFSGSGSGTDFTLTISSLEPEDFATYYCQQIYSFPHTFGQGTKVEIKR
B2: MS-R 3.6.H5 x 3.6.L2 IgG1 (antibody, V domains shown)
VH: QLVESGGGLVQPGGSLRLSCAASGFTFSSYAMSWVRQAPGKGLEWVSAISESGKTKYYADSVKGRFTISRDNSKNTLYLQMNSLRAEDTAVYYCARLTHYARYYRYFDVWGQGTLVTVSS
VL: B1 VL with Y28F, V29L, D30S, T32Y, T86V, I92T, S94N, F95Y, H97P
B3: MS-R 7.9.H7 IgG1 (antibody, V domains shown)
VH: QVELVESGGGLVQPGGSLRLSCAASGFTFSSYAMSWVRQAPGKGLEWVSAINASGTRTYYADSVKGRFTISRDNSKNTLYLQMNSLRAEDTAVYYCARGKGNTHKPYGYVRYFDVWGQGTLVTVSS
VL: B1 VL with Y28S, D30S, R31S, T32S, Q90L, S94N, F95M, H97I
B4: MS-R 7.9.H2 IgG1 (antibody, V domains shown)
VH: B1 VH with G48A, A52D, F54N, T56K
VL: B1 VL with Y28S, D30S, R31S, T32S, Q90L, S94N, F95M, H97I
B5: MS-R 7.4.H2 x 7.2.L1 IgG1 (antibody, V domains shown)
VH: B1 VH with G48A, A51Y, A52N, F54A, T56I
VL: B1 VL
B6: MS-R 7.11.H1 x 7.11.L1 IgG1 (antibody, V domains shown)
VH: B1 VH
VL: B1 VL with Y28R, V29I, D30L, T32I, I92V, F95P
B7: MS-R 3.6.H8 x 3.6.L2 IgG1 (antibody, V domains shown)
VH: B2 VH with S52Y, G53S, T55F
VL: B1 VL with Y28F, V29L, D30S, T32Y, T86V, I92T, S94N, F95Y, H97P

Molecular target: Aβ1-40 fibers (human)
Assay: SPR

Binder	Kd
B1	0.14 nM
B2	0.2 nM
B3	0.25 nM
B4	0.12 nM
B5	0.12 nM
B6	0.11 nM

Molecular target: Aβ1-40 fibers (human)
Assay: SPR, monovalent

Binder	Kd
B7	0.95 nM

Molecular target: Aβ1-42 fibers (human)
Assay: SPR, monovalent

Binder	Kd
B7	0.82 nM

Molecular target: Aβ1-42 fibers (human)
Assay: SPR, bivalent

Binder	Kd
B7	0.22 nM

Molecular target: Aβ1-42 fibers (human)
Assay: SPR

Binder	Kd
B1	0.67 nM
B2	0.95 nM
B3	0.7 nM
B4	0.38 nM
B5	0.56 nM
B6	0.7 nM

Molecular target: Aβ1-40 fibers (human)
Assay: SPR
Remark: another data set of the same source

Binder	Kd
B1	0.66 nM
B2	1.03 nM
B3	0.69 nM
B4	0.42 nM
B5	0.63 nM
B6	0.7 nM

Molecular target: Aβ1-40 fibers (human)
Assay: SPR, bivalent

Binder	Kd
B7	0.22 nM

Molecular target: Aβ1-42 fibers (human)
Assay: SPR
Remark: another data set of the same source

Binder	Kd
B1	0.15 nM
B2	0.2 nM
B3	0.24 nM
B4	0.11 nM
B5	0.12 nM
B6	0.13 nM
